Key:
[1] = target: T1, ∆^1-pyrroline-5-carboxylate (P5C) dehydrogenase (PruA) (Mycobacterium tuberculosis, UniProt O50443); assay: biochemical
T1 construct: gene rocA

O=C(O)C1CCC=N1 = assay: purified protein; conditions: NAD^+; pH 7.0; 25.0 °C
[2] = system: NC(=O)c1ccc[n+]([C@@H]2O[C@H](COP(=O)([O-])OP(=O)(O)OC[C@H]3O[C@@H](n4cnc5c(N)ncnc54)[C@H](O)[C@@H]3O)[C@@H](O)[C@H]2O)c1; assay: purified protein; conditions: pH 7.0; 25.0 °C; varied: cofactor

T1 sequence (O50443 1-543): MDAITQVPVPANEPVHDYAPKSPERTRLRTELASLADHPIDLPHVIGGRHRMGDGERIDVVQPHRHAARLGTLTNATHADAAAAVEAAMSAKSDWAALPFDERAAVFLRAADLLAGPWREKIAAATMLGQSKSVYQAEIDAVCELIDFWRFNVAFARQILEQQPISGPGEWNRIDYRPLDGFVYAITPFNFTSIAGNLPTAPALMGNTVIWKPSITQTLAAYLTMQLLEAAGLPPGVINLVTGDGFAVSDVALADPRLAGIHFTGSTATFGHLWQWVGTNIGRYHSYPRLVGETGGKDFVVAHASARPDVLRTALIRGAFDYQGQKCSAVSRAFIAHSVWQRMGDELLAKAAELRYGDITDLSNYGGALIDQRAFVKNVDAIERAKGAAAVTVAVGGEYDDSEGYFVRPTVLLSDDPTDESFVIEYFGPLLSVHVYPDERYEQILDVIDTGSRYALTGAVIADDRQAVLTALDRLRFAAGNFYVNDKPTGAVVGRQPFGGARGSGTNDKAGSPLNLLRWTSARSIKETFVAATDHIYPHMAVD

## O=C(O)[C@@H]1CCCN1 [L-proline]
[1]
  Ki: 6.7 mM

## ∆^1-pyrroline-5-carboxylate (P5C) dehydrogenase (PruA) (Mycobacterium tuberculosis H37Rv)
O=C(O)C1CCC=N1
  Km: 120 ± 0.02 µM
  kcat: 1.1 s⁻¹
  kcat/Km: 8500 M⁻¹ s⁻¹
[2]
  Km: 33 ± 4.3 µM
